“And” between values parts separate entries of the source, which are not always exact repeats. Equal values may be shown once.
T1: cynoTIM-3/Fc (cynomolgus monkey, UniProt A0A2K5U3G7 22-195)
T1 sequence: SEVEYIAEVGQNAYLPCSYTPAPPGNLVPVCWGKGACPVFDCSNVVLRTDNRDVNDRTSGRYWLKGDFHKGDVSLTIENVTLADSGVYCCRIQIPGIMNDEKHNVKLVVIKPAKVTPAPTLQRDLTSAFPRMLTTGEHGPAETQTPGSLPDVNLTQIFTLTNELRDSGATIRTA

T2: ratTIM-3/Fc (rat, UniProt P0C0K5 22-194, limits assumed)
T2 construct: also called rat TIM-3/Fc protein
T2 sequence (looked up): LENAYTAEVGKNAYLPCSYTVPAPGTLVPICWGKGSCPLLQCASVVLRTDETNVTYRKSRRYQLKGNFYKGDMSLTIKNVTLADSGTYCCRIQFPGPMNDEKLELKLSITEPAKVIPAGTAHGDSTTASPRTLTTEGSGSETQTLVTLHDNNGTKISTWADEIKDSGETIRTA


What was measured:
[1] = target: T3, TIM-3 (antigen; species and construct not stated for the assay) (UniProt Q8TDQ0 22-202, limits assumed); experiment: SPR (Biacore), run of May 30, 2014
[2] = target: T3, TIM-3 (antigen; species and construct …); experiment: SPR (Biacore), run of May 1, 2014
[3] = target: T3, TIM-3 (antigen; species and construct …); experiment: SPR (Biacore), run of Apr. 29, 2014
[4] = target: T3, TIM-3 (antigen; species and construct …); experiment: FACS competition binding against the parent murine ABTIM3; cells not named on the sheet
[5] = target: T3, TIM-3 (antigen; species and construct …); experiment: SPR (Biacore), run of Apr. 7, 2014
cynoTIM-3/Fc [6] = target: T1, cynoTIM-3/Fc; experiment: SPR (Biacore), run 3
cynoTIM-3/Fc [7] = target: T1, cynoTIM-3/Fc; experiment: SPR (Biacore), run 1; run 1 of three; cynoTIM-3/Fc
ratTIM-3/Fc = target: T2, ratTIM-3/Fc; experiment: SPR (Biacore), run 2
cynoTIM-3/Fc [8] = target: T1, cynoTIM-3/Fc; experiment: SPR (Biacore), run 2
cynoTIM-3/Fc [9] = target: T1, cynoTIM-3/Fc; experiment: SPR (Biacore), mean KD
huTIM-3/his = target: T4, huTIM-3/his (human, UniProt Q8TDQ0 22-202); experiment: Biacore, 2nd antibody injection; 1st antibody (competitor) ABTIM3-hum21
T4 construct: also called hTIM-3/his antigen

[10] = target: T5, human TIM-3 expressed on cells (human, UniProt Q8TDQ0 22-301); experiment: flow cytometry on cells expressing human TIM-3
T5 construct: also called huTIM-3; hTIM-3

[11] = target: T5, human TIM-3 expressed on cells; experiment: flow cytometry competition on 300.19 hTIM-3 cells against PE-labelled ABTIM3-hum21

Row | Binder | Kd [1] | Kd [2] [nM] | IC50 (read off the curve) [4] [µg/mL] | Kd [5] [nM] | further results
1 | ABTIM3-hum02 (antibody, human IgG4 S228P, kappa, V domains shown, Humanized) VH: QVQLVQSGAEVKKPGASVKVSCKASGYTFTSYNMHWVRQAPGQGLEWIGDIYPGSGDTSYNQKFKGRATMTADKSTSTVYMELSSLRSEDTAVYYCARVGGAFPMDYWGQGTLVTVSS VL: DIVLTQSPDSLAVSLGERATINCRASESVEYYGTSLMQWYQQKPGQPPKLLIYAASNVESGVPDRFSGSGSGTDFTLTISSLQAEDVAVYYCQQSRKDPSTFGGGTKVEIKR | 0.174 nM | 0.269 |  |  | Kd [3]: 0.308 nM
2 | ABTIM3-hum07 (antibody, human IgG4 S228P, kappa, V domains shown, Humanized) VH: QVQLVQSGAEVKKPGASVKVSCKASGYTFTSYNMHWIRQAPGQGLEWIGDIYPGNGDTSYNQKFKGRATLTADKSTSTVYMELSSLRSEDTAVYYCARVGGAFPMDYWGQGTLVTVSS VL: DIVLTQSPDSLAVSLGERATINCRASESVEYYGTSLMQWYQQKPGQPPKLLIYAASNVESGVPDRFSGSGSGTDFTLTISSLQAEDVAVYYCQQSRKDPSTFGGGTKVEIKR | 0.196 nM | 0.199 | ~0.2 | 0.135 | 
3 | ABTIM3-hum06 (antibody, human IgG4 S228P, kappa, V domains shown, Humanized) VH: QVQLVQSGAEVKKPGASVKVSCKASGYTFTSYNMHWIRQAPGQGLEWIGDIYPGQGDTSYNQKFKGRATLTADKSTSTVYMELSSLRSEDTAVYYCARVGGAFPMDYWGQGTLVTVSS VL: DIVLTQSPDSLAVSLGERATINCRASESVEYYGTSLMQWYQQKPGQPPKLLIYAASNVESGVPDRFSGSGSGTDFTLTISSLQAEDVAVYFCQQSRKDPSTFGGGTKVEIKR | 0.364 nM | 0.214 |  |  | Kd [3]: 0.498 nM
4 | ABTIM3-hum01 (antibody, human IgG4 S228P, kappa, V domains shown, Humanized) VH: QVQLVQSGAEVKKPGASVKVSCKASGYTFTSYNMHWVRQAPGQGLEWIGDIYPGNGDTSYNQKFKGRATMTADKSTSTVYMELSSLRSEDTAVYYCARVGGAFPMDYWGQGTLVTVSS VL: DIVLTQSPDSLAVSLGERATINCRASESVEYYGTSLMQWYQQKPGQPPKLLIYAASNVESGVPDRFSGSGSGTDFTLTISSLQAEDVAVYYCQQSRKDPSTFGGGTKVEIKR | 0.23 nM and 0.193 nM | 0.114 | ~0.2 | 0.103 | 
5 | ABTIM3-hum03 (antibody, human IgG4 S228P, kappa, Humanized; Immobilized on Protein G beads and cross-linked with DSS in the HDx-MS experiment) heavy: not shown light: DIVLTQSPDSLAVSLGERATINCRASESVEYYGTSLMQWYQQKPGQPPKLLIYAASNVESGVPDRFSGSGSGTDFTLTISSLQAEDVAVYYCQQSRKDPSTFGGGTKVEIKRTVAAPSVFIFPPSDEQLKSGTASVVCLLNNFYPREAKVQWKVDNALQSGNSQESVTEQDSKDSTYSLSSTLTLSKADYEKHKVYACEVTHQGLSSPVTKSFNRGEC |  |  |  |  | Kd (cynoTIM-3/Fc [6]): 3.08 nM; Kd (cynoTIM-3/Fc [7]): 1.04 nM; Kd (ratTIM-3/Fc): 51 nM; Kd (cynoTIM-3/Fc [8]): 3.89 nM; Kd (cynoTIM-3/Fc [9]): 2.67 nM
6 | ABTIM3-hum05 (antibody, human IgG4 S228P, kappa, V domains shown, Humanized) VH: QVQLVQSGAEVKKPGASVKVSCKASGYTFTSYNMHWIRQAPGQGLEWIGDIYPGSGDTSYNQKFKGRATLTADKSTSTVYMELSSLRSEDTAVYYCARVGGAFPMDYWGQGTLVTVSS VL: DIVLTQSPDSLAVSLGERATINCRASESVEYYGTSLMQWYQQKPGQPPKLLIYAASNVESGVPDRFSGSGSGTDFTLTISSLQAEDVAVYFCQQSRKDPSTFGGGTKVEIKR | 0.332 nM | 0.279 |  |  | Kd [3]: 0.313 nM
7 | ABTIM3-hum21 (antibody, human IgG1, kappa, Humanized) heavy: not shown light: DIVLTQSPDSLAVSLGERATINCRASESVEYYGTSLMQWYQQKPGQPPKLLIYAASNVESGVPDRFSGSGSGTDFTLTISSLQAEDVAVYYCQQSRKDPSTFGGGTKVEIKRTVAAPSVFIFPPSDEQLKSGTASVVCLLNNFYPREAKVQWKVDNALQSGNSQESVTEQDSKDSTYSLSSTLTLSKADYEKHKVYACEVTHQGLSSPVTKSFNRGEC |  |  |  |  | change in RU (huTIM-3/his): 6.6 RU; Kd [10]: 0.917 nM; IC50 (read off the curve) [11]: ~0.4 µg/mL
8 | ABTIM3-hum12 (antibody, human IgG4 S228P, kappa, V domains shown, Humanized) VH: EVQLVQSGAEVKKPGESLKISCKGSGYTFTSYNMHWVRQMPGKGLEWMGDIYPGNGDTSYNQKFKGQVTISADKSISTVYLQWSSLKASDTAMYYCARVGGAFPMDYWGQGTTVTVSS VL: AIQLTQSPSSLSASVGDRVTITCRASESVEYYGTSLMQWYQQKPGKAPKLLIYAASNVESGVPSRFSGSGSGTDFTLTISSLQPEDFATYFCQQSRKDPSTFGGGTKVEIKR | 0.355 nM |  |  |  | 

Further lines, with some results ahead:

Row | Kd [1] | Kd [2] [nM] | IC50 (read off the curve) [4] [µg/mL] | Kd [5] [nM] | Binder | further results
9 | 0.161 nM |  |  |  | ABTIM3-hum09 (antibody, human IgG4 S228P, kappa, V domains shown, Humanized) VH: QVQLVQSGAEVKKPGSSVKVSCKASGYTFTSYNMHWVRQAPGQGLEWMGDIYPGNGDTSYNQKFKGRVTITADKSTSTVYMELSSLRSEDTAVYYCARVGGAFPMDYWGQGTTVTVSS VL: EIVLTQSPATLSLSPGERATLSCRASESVEYYGTSLMQWYQQKPGQAPRLLIYAASNVESGIPARFSGSGSGTDFTLTISSLEPEDIAVYFCQQSRKDPSTFGGGTKVEIKR | 
10 | 0.175 nM | 0.309 | ~0.2 | 0.123 | ABTIM3-hum08 (antibody, human IgG4 S228P, kappa, V domains shown, Humanized) VH: QVQLVQSGAEVKKPGASVKVSCKASGYTFTSYNMHWVRQAPGQGLEWIGDIYPGNGDTSYNQKFKGRATMTADKSTSTVYMELSSLRSEDTAVYYCARVGGAFPMDYWGQGTLVTVSS VL: DIVLTQSPDSLAVSLGERATINCRASESVEYYGTSLMQWYQQKPGQPPKLLIYAASNVESGVPDRFSGSGSGTDFTLTISSLQAEDVAVYFCQQSRKDPSTFGGGTKVEIKR | 
11 | 0.172 nM |  | ~0.2 | 0.216 | ABTIM3-hum04 (antibody, human IgG4 S228P, kappa, V domains shown, Humanized) VH: QVQLVQSGAEVKKPGASVKVSCKASGYTFTSYNMHWIRQAPGQGLEWIGDIYPGNGDTSYNQKFKGRATLTADKSTSTVYMELSSLRSEDTAVYYCARVGGAFPMDYWGQGTLVTVSS VL: DIVLTQSPDSLAVSLGERATINCRASESVEYYGTSLMQWYQQKPGQPPKLLIYAASNVESGVPDRFSGSGSGTDFTLTISSLQAEDVAVYFCQQSRKDPSTFGGGTKVEIKR | 
12 | 0.107 nM |  |  |  | ABTIM3-hum10 (antibody, human IgG4 S228P, kappa, V domains shown, Humanized) VH: EVQLVQSGAEVKKPGESLKISCKGSGYTFTSYNMHWVRQMPGKGLEWMGDIYPGNGDTSYNQKFKGQVTISADKSISTVYLQWSSLKASDTAMYYCARVGGAFPMDYWGQGTTVTVSS VL: EIVLTQSPATLSLSPGERATLSCRASESVEYYGTSLMQWYQQKPGQAPRLLIYAASNVESGIPARFSGSGSGTDFTLTISSLEPEDIAVYFCQQSRKDPSTFGGGTKVEIKR | 

Source: patent publication US20250213684A1 (Novartis, published 2025)
